For data set [1], the target named is T1, BKACE15 (Paracoccus denitrificans, UniProt A1B802).
T1 construct: gene Pden_3578
T1 sequence (A1B802 1-310): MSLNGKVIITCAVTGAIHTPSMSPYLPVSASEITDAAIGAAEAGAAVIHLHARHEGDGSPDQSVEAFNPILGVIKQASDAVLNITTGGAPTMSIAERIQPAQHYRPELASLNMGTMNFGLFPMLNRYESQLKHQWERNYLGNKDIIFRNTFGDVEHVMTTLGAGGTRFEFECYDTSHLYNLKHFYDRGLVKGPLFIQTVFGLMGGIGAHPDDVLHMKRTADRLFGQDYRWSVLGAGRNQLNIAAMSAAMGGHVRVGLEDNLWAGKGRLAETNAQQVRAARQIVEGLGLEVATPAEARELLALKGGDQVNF
Kind of data set: crystal structure at […] Å (with acetyl-CoA); product inhibition measured by LC-MS with purified enzyme. The data set is classed as biochemical.

Substrate in data set [2]: CC(=O)SCCNC(=O)CCNC(=O)[C@H](O)C(C)(C)COP(=O)(O)OP(=O)(O)OC[C@H]1O[C@@H](n2cnc3c(N)ncnc32)[C@H](O)[C@@H]1OP(=O)(O)O
The data set is described as follows: purified protein. The following applies: Zn2+ active site entry channel, fully occupied upon acetyl-CoA binding.

Substrate in data set [3]: O=CCC(=O)O
Kind of data set: purified protein. The following applies: Zn2+ MSA must enter the active site first, before acetyl-CoA can bind. The data set is classed as biochemical, Paracoccus denitrificans.

Usually IC50 stands for the concentration that gives 50% inhibition. For orientation: Km means the concentration of substrate that gives half-maximal velocity.

`CC(=O)CC(=O)O` [AAE, acetoacetate] yielded an IC50 in data set [1] of 1.45 ± 0.16 mM.

B1: BKACE15 (Paracoccus denitrificans PD1222) (protein)
chain: MSLNGKVIITCAVTGAIHTPSMSPYLPVSASEITDAAIGAAEAGAAVIHLHARHEGDGSPDQSVEAFNPILGVIKQASDAVLNITTGGAPTMSIAERIQPAQHYRPELASLNMGTMNFGLFPMLNRYESQLKHQWERNYLGNKDIIFRNTFGDVEHVMTTLGAGGTRFEFECYDTSHLYNLKHFYDRGLVKGPLFIQTVFGLMGGIGAHPDDVLHMKRTADRLFGQDYRWSVLGAGRNQLNIAAMSAAMGGHVRVGLEDNLWAGKGRLAETNAQQVRAARQIVEGLGLEVATPAEARELLALKGGDQVNF
Take B1: the Km is listed as 0.11 ± 0.01 mM in data set [2] and 0.83 ± 0.09 mM in data set [3].

Source of the values: article PMC11961710, “Design and implementation of aerobic and ambient CO2-reduction as an entry-point for enhanced carbon fixation” (Nature Communications, 2025).
